System: molecular beacon probe
Experiment: DNA polymerase molecular beacon activity assay
Format: biochemical
Details: affinity purified enzyme expressed in A. wodanis 03/09/160; increasing enzyme
Description: Activity assay for AsPoIII is based on a molecular beacon probe (5″-GGCCCGT^Dabcyl[…]^FAMACGGGCCGTCAAGTT CATG […]-3′ (SEQ ID NO:46)) (modified from Summerer, 2008). The molecular beacon probe consists of a 23mer loop that is connected by a GC-rich 8mer stem region (the 8-mer stem region consists of two 8 nucleotide sequences-sequences are indicated in italics) and a 43mer extension. The fluorophores Dabcyl and FAM are attached to the indicated “T” nucleotides. Due to the loop formation the fluorophores Dabcyl and FAM are in close proximity and thus quenched. Upon extension by the DNA polymerase I of the primer (5″-GTGGTGCGAAATTTCTGAC-3′ (SEQ ID NO:47)) that is annealed to the molecular beacon template the stem is opened and the increase in distance of the two fluorophores is measured by the restoration of FAM fluorescence (excitation 485 nm, emission 518 nm). Assay was monitored in 50 μL reactions containing 0.2 μM substrate (molecular beacon) mixed with 0.2 mM dNTP in 1× reaction buffer (250 mM Tris-HCl, pH 8.5, 250 mM, KCl, 25 mM MgCl2) and 1×DB (1 mg/ml BSA, 5 mM DTT, 10% glycerol). The mixture was first incubated at 25° C. for 5 min, and the reaction was started by adding the purified enzyme. Increase in fluorescence was measured (excitation 485 nm, emission 518 nm) for 15 min with 10 sec intervals (total of 91 reads). […]

B1: AsPoIII: DNA polymerase II from Aliivibrio salmonicida (SEQ ID NO: 38), His-tagged, expressed in A. wodanis (protein, listed as Aliivibrio salmonicida)
chain: LNSPHCGFLLTRQNKDIRDHSLVDLWVKCDDHIAHLLIENELAVIFFLKERQAEYESILTNAHIHYSIKSTSLHTFQHQPVFGLYFSSTQQKRVATALFEDHQLPTFEGDIRLADRYLMERFICGGMAFVGTPRQRKGYVEYRDVKIKSAEMTPEFSVVSLDVECSEKGILYSVALHCERDTRIIMVGPEETSDLPIEWVENEKALLLALESWFQTFDPDIIIGWNVINFDFNLLIKRAKWHNLAFRLGRGNSSLYFRESNKNRQQGFLSFPGRVVLDGIDALKTATYHFSSWSLESVSQELLNEGKSIHDPSDRMGEINRMYREDKCALAKYNLQDCVLVTRIFELTHLLEFVIERTKLTGIELDRVGGSVAAFTNLYLPRLHRAGYIAPNLESENWIASPGGYVMSSKPGLYESVLVLDFKSLYPSIIKTFRIDPLGLVEGLKLESGIDDGQAIEGFRGGRFHRTKHFLPNLIETLWSARDVAKKNNEKAFSQAIKIIMNSFYGVLGSSGCRFFDHRLASSITMRGHEIMKTTRELIESQGYEVIYGDTDSTFVTLGESMPSDEADKIGKQLVDHINQWWTAHLESEYAIDSALEIEYETHYRIFLMPTIRGSEMGSKKRYAGLIRKGDKEEIIFKGLETVRTDWTPLSQEFQKVLFDKVFHQQAVEEYVREYVDKTKSGEFDNKLIYRKRLRRQLDEYQKNVPPHVKAARIADTQNQKLGKPLMYQQGGWIEYIITTAGPEPIEYRQNPIDYDHYVEKQLKPIAEGILPFVNLSFTELSASQLGLF
modifications: 6xHis tag
DNA polymerase activity (FAM fluorescence, RFU): dose-dependent

Reference: patent US11560582B2, “Fusion moieties and microbial hosts for protein production” (priority 2018, dated 2023)
